Experimental data taken from PMC3618615 (Nature structural & molecular biology, 2013).

Target: T1, EYA2 Eya domain (EYA2ED) (human, UniProt O00167-1 253-538)
T1 sequence: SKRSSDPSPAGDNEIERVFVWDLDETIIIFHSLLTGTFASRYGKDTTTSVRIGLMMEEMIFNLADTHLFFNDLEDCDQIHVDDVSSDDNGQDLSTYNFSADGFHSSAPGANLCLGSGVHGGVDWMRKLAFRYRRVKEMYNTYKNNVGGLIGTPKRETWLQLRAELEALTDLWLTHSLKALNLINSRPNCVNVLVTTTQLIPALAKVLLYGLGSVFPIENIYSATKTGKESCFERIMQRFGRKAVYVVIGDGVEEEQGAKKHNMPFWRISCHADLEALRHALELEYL
Assay: crystal structure

B1: MBP-SIX1 (human SIX1 residues 1-189 fused to MBP_B) (domain or fragment, UniProt Q15475 1-189, looked up)
chain: MSMLPSFGFTQEQVACVCEVLQQGGNLERLGRFLWSLPACDHLHKNESVLKAKAVVAFHRGNFRELYKILESHQFSPHNHPKLQQLWLKAHYVEAEKLRGRPLGAVGKYRVRRKFPLPRTIWDGEETSYCFKEKSRGVLREWYAHNPYPSPREKRELAEATGLTTTQVSNWFKNRRQRDRAAEAKEREN
  binding result: binds
